Laboratory results as given in publication PMC2603668, “Rhabdovirus Matrix Protein Structures Reveal a Novel Mode of Self-Association” (PLoS Pathogens, 2008).

Molecular target: the molecule itself
Experiment: crystal structure

B1: matrix (M) protein from Lagos bat virus (natural protein)
chain: MNFLRKIVKNCKDEEIPKPGTPSAPPDDDDLWMPPPEYVPLTQIKGKENVRNFCINGEIKICSPNGYSFRILRHILKSFDNVYSGNRRLIGVVKVVIGLVLSASPVPEGMNWVYKLRRTLIFQWAESHGPLEGEELEYSQEITWDDEAEFVSLQIRVSAKQCHIQGRLWCINMNSKACQLWADMGLKTQQSQEDENTSLLLE
notes: also called LBV M; full-length LBV M
B1: binds.
